Experimental findings from article PMC11303751, “Novel enzymatic route to the synthesis of C-8 hydroxyflavonoids including flavonols and isoflavones” (Scientific Reports, 2024) are described below.

One data set addresses T1, fdeE (Herbaspirillum seropedicae, UniProt D8J0W9).
T1 construct: gene Hsero_1007; codon-optimised ORF in pRhaBAD_12, expressed in E. coli BL21(DE3), purified by Ni IMAC (HisTrap), desalted
T1 sequence (D8J0W9 1-376): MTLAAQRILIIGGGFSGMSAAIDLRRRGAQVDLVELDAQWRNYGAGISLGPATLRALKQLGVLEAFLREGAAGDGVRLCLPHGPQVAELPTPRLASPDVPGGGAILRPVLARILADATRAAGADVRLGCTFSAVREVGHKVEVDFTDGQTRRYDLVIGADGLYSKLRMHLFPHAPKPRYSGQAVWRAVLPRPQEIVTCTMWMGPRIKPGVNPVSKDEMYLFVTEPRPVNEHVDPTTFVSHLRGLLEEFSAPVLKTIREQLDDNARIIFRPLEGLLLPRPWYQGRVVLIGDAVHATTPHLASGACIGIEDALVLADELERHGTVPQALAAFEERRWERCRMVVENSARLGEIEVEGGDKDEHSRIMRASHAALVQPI
As to the kind of experiment: UV-Vis spectrum of purified enzyme. It is filed as binding. As to conditions: FAD co-purified with the enzyme; none added.

Substrate in the data set “purified protein”: O=c1cc(-c2ccc(O)cc2)oc2cc(O)cc(O)c12
As to the kind of experiment: purified protein. As to conditions: 1 mM NADPH, GDH/glucose regeneration, 25 mM DTT, 25 mM sodium phosphate pH 7.5, initial substrate 0.05 mM, from a single progress curve.

Substrate in data set [1]: O=c1cc(-c2ccccc2)oc2cc(O)cc(O)c12
The data set can be described thus: UPLC-DAD product-formation progress curve. It is filed as biochemical, Herbaspirillum seropedicae. As to conditions: 1 mM NADPH, GDH/glucose regeneration, 25 mM DTT, 25 mM sodium phosphate pH 7.5, initial substrate 0.05 mM, from a single progress curve. From the text: (§1) UPLC-DAD product-formation progress curve on fdeE

Substrate in data set [2]: O=C1C[C@@H](c2ccc(O)cc2)Oc2cc(O)cc(O)c21
The data set can be described thus: UPLC-DAD product-formation progress curve. Format: biochemical, Herbaspirillum seropedicae. As to conditions: 1 mM NADPH, GDH/glucose regeneration, 25 mM DTT, 25 mM sodium phosphate pH 7.5, initial substrate 0.05 mM, from a single progress curve.
Text: as §1

Substrate in data set [3]: O=c1c(O)c(-c2ccc(O)c(O)c2)oc2cc(O)cc(O)c12
The data set can be described thus: UPLC-DAD product-formation progress curve. Format: biochemical, Herbaspirillum seropedicae. As to conditions: 1 mM NADPH, GDH/glucose regeneration, 25 mM DTT, 25 mM sodium phosphate pH 7.5, initial substrate 0.05 mM, from a single progress curve.
Text: as §1

Substrate in data set [4]: O=c1cc(-c2ccc(O)c(O)c2)oc2cc(O)cc(O)c12
As to the kind of experiment: UPLC-DAD product-formation progress curve. Format: biochemical, Herbaspirillum seropedicae. Conditions: 1 mM NADPH, GDH/glucose regeneration, 25 mM DTT, 25 mM sodium phosphate pH 7.5, initial substrate 0.05 mM, from a single progress curve.
Text: as §1

In the case of `Cc1cc2nc3c(=O)[nH]c(=O)nc-3n(C[C@H](O)[C@H](O)[C@H](O)COP(=O)(O)OP(=O)(O)OC[C@H]3O[C@@H](n4cnc5c(N)ncnc54)[C@H](O)[C@@H]3O)c2cc1C` [FAD], the “UV-Vis spectrum of purified enzyme” value at fdeE is reported as “UV–Vis spectrium of purified fdeE with absorption spectra characteristic for FAD absorbance”.

B1: fdeE (Herbaspirillum seropedicae SmR1) (protein)
chain: T1 sequence (D8J0W9 1-376)
notes: codon-optimised ORF in pRhaBAD_12, expressed in E. coli BL21(DE3), purified by Ni IMAC (HisTrap), desalted
As to B1, the Michaelis-Menten constant (Km) – broadly, the concentration of substrate that gives half-maximal velocity – in the data set “purified protein” was determined as 20.2 µM; in data set [1] it was 431 µM; in data set [2] it was 0.422 µM; in data set [3] it was 14.9 µM; in data set [4] it was 51.8 µM. The Vmax (in general, the top rate of the reaction or transport when substrate is in excess) in the data set “purified protein” turned out to be 4.02 µM/min; in data set [1] it was 88.2 µM/min; in data set [2], 2.09 µM/min; in data set [3], 0.512 µM/min; in data set [4], 6.12 µM/min. The kcat – broadly, the maximal rate divided by the concentration of active sites – in the data set “purified protein” was 0.0532 s⁻¹; in data set [1] it was 1.17 s⁻¹; in data set [2], 0.0277 s⁻¹; in data set [3] it was 0.00678 s⁻¹; in data set [4] it was 0.0811 s⁻¹. The kcat/Km (in general, the turnover number divided by the Michaelis constant) in “purified protein” came to 2630 M⁻¹ s⁻¹; in data set [1], 2720 M⁻¹ s⁻¹; in data set [2], 65500 M⁻¹ s⁻¹; in data set [3], 450 M⁻¹ s⁻¹; in data set [4], 1570 M⁻¹ s⁻¹.
